The test has as its target T1, 6xHis-3xFLAG-Cdk8 wt (recombinant, full-length) (human, UniProt P49336 1-464).
T1 construct: Cdk8, human, full-length; Co-expressed with CycC, alone or together with MTBP(C) or Med12(N100); source: Sf9/Hi5 insect cells (baculovirus), purified (Ni-NTA, dialysis); not shown: 6xHis, N-terminal, kept
Put plainly: pull-down; co-expression in Sf9/Hi5 insect cells and co-purification on Ni-NTA agarose via the N-terminal 6His-tag on Cdk8; 20 mM HEPES pH 8.0, 150 mM NaCl, 2% glycerol, 0.1% Triton X-100, 0.5 mM TCEP, 20 mM imidazole; 4°C. The following applies: partners not purified.

T1 sequence (P49336 whole entry): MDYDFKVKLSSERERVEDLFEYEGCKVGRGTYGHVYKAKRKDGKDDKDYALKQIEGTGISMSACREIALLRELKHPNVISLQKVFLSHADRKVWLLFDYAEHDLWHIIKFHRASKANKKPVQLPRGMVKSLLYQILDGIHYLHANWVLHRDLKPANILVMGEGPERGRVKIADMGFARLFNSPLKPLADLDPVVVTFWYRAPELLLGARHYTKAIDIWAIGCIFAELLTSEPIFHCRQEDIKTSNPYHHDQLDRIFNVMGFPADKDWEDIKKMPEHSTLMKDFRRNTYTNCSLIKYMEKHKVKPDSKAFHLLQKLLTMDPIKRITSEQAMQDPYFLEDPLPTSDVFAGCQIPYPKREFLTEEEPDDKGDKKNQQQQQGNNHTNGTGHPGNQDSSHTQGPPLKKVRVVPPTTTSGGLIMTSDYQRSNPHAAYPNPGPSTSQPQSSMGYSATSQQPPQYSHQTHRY

B1: Med12(N100) (recombinant Med12 residues 1-100) (domain or fragment, human, UniProt Q93074 1-100, looked up)
chain: MAAFGILSYEHRPLKRPRLGPPDVYPQDPKQKEDELTALNVKQGFNNQPAVSGDEHGSAKNVSFNPAKISSNFSSIIAEKLRCNTLPDTGRRKPQVNQKD
notes: Med12, human, residues 1-100; also called Med12-1-100; Med12(1-100); source: Sf9/Hi5 insect cells (baculovirus), co-expressed with Cdk8 and CycC, purified (Ni-NTA via Cdk8); also purified alone
On to B1, for which the binding result is “binds”.

Values taken from doi:10.1101/2025.06.16.659917, “MTBP allosterically activates Cdk8-CycC kinase activity” (bioRxiv, 2025).
